Numbered stars: 1 amine (or outer) side, 2 acyl side, 3 side chain; on linkers, the order of the positions; unused ones are H or OH. Square brackets hold non-standard residues; d marks the D form. Ends that are not written are not given here. * marks the point of attachment. Ala(2-Qui) = 2-quinolylalanine, O=C([C@H](Cc1ccc2ccccc2n1)N[*:1])[*:2]; Propanoyl(3-(3-pyridyl)) = O=C(CCc1cccnc1)*; Phe(4-F) = N[C@@H](Cc1ccc(F)cc1)C(=O)O; Arg(Me) = CNC(=N)NCCC[C@H](N)C(=O)O; Lys(Me2) = CN(C)CCCC[C@H](N)C(=O)O; 4Pal = N[C@@H](Cc1ccncc1)C(=O)O; d3Pal = N[C@H](Cc1cccnc1)C(=O)O; d4Pal = N[C@H](Cc1ccncc1)C(=O)O; Cha = N[C@@H](CC1CCCCC1)C(=O)O; Orn = NCCC[C@H](N)C(=O)O; Boc = CC(C)(C)OC(=O)*; azaGly = NNC(=O)O
B1: Compound No. 385: des(1)-[D-Tyr2,D-Pya(4) 3,AzaGly7,Arg(Me)9,Trp10]MS10 (peptide)
peptide: [dY][d4Pal]NSF[azaGly]L[Arg(Me)]W-NH2
modifications: N-terminus assumed
SMILES: CNC(=N)NCCC[C@H](NC(=O)[C@H](CC(C)C)NC(=O)NNC(=O)[C@H](Cc1ccccc1)NC(=O)[C@H](CO)NC(=O)[C@H](CC(N)=O)NC(=O)[C@@H](Cc1ccncc1)NC(=O)[C@H](N)Cc1ccc(O)cc1)C(=O)N[C@@H](Cc1c[nH]c2ccccc12)C(N)=O
B2: Compound No. 397: Methylthiocarbamoyl-Sar-[D-Tyr1,Arg(Me)9]MS10 (peptide)
peptide: GYNWNSFGLRF
modifications: N-terminal Methylthiocarbamoyl-Sar added before position 1; D-Tyr1; Arg(Me)9 (MS10 numbering); C-terminal amide
B3: Compound No. 173: [D-Tyr1,Ala7,Arg(Me)9]MS10 (peptide)
peptide: [dY]NWNSFAL[Arg(Me)]F-NH2
modifications: N-terminus assumed
SMILES: CNC(=N)NCCC[C@H](NC(=O)[C@H](CC(C)C)NC(=O)[C@H](C)NC(=O)[C@H](Cc1ccccc1)NC(=O)[C@H](CO)NC(=O)[C@H](CC(N)=O)NC(=O)[C@H](Cc1c[nH]c2ccccc12)NC(=O)[C@H](CC(N)=O)NC(=O)[C@H](N)Cc1ccc(O)cc1)C(=O)N[C@@H](Cc1ccccc1)C(N)=O
B4: Compound No. 317: [D-Tyr1,D-Asn2,Pya(4) 3,AzaGly7,Arg(Me)9,Phe(4F)10]MS10 (peptide)
peptide: [dY][dN][4Pal]NSF[azaGly]L[Arg(Me)][Phe(4-F)]-NH2
modifications: N-terminus assumed
SMILES: CNC(=N)NCCC[C@H](NC(=O)[C@H](CC(C)C)NC(=O)NNC(=O)[C@H](Cc1ccccc1)NC(=O)[C@H](CO)NC(=O)[C@H](CC(N)=O)NC(=O)[C@H](Cc1ccncc1)NC(=O)[C@@H](CC(N)=O)NC(=O)[C@H](N)Cc1ccc(O)cc1)C(=O)N[C@@H](Cc1ccc(F)cc1)C(N)=O
B5: Compound No. 375: 2-Aminoethyl-Gly-[D-Tyr1,Arg(Me)9]MS10 (peptide)
peptide: {2‑aminoethyl}-G[dY]NWNSFGL[Arg(Me)]F-NH2
modifications: not fully specified (residue 1); printed as 2-Aminoethyl-Gly-[D-Tyr1,Arg(Me)9]MS10
B6: Compound No. 314: [Orn9]MS10 (peptide)
peptide: YNWNSFGL[Orn]F-NH2
modifications: N-terminus assumed
SMILES: CC(C)C[C@H](NC(=O)CNC(=O)[C@H](Cc1ccccc1)NC(=O)[C@H](CO)NC(=O)[C@H](CC(N)=O)NC(=O)[C@H](Cc1c[nH]c2ccccc12)NC(=O)[C@H](CC(N)=O)NC(=O)[C@@H](N)Cc1ccc(O)cc1)C(=O)N[C@@H](CCCN)C(=O)N[C@@H](Cc1ccccc1)C(N)=O
B7: Compound No. 386: des(1-3)-3-Pyridylpropionyl-[AzaGly7,Arg(Me)9,Trp10]MS10 (peptide)
peptide: {Propanoyl(3-(3-pyridyl))}-NSF[azaGly]L[Arg(Me)]W-NH2
SMILES: CNC(=N)NCCC[C@H](NC(=O)[C@H](CC(C)C)NC(=O)NNC(=O)[C@H](Cc1ccccc1)NC(=O)[C@H](CO)NC(=O)[C@H](CC(N)=O)NC(=O)CCc1cccnc1)C(=O)N[C@@H](Cc1c[nH]c2ccccc12)C(N)=O
B8: Compound No. 209: [D-Tyr1,Gln4,Arg(Me)9]MS10 (peptide)
peptide: [dY]NWQSFGL[Arg(Me)]F-NH2
modifications: N-terminus assumed
SMILES: CNC(=N)NCCC[C@H](NC(=O)[C@H](CC(C)C)NC(=O)CNC(=O)[C@H](Cc1ccccc1)NC(=O)[C@H](CO)NC(=O)[C@H](CCC(N)=O)NC(=O)[C@H](Cc1c[nH]c2ccccc12)NC(=O)[C@H](CC(N)=O)NC(=O)[C@H](N)Cc1ccc(O)cc1)C(=O)N[C@@H](Cc1ccccc1)C(N)=O
B9: Compound No. 207: [D-Tyr1,Ser4,Arg(Me)9]MS10 (peptide)
peptide: [dY]NWSSFGL[Arg(Me)]F-NH2
modifications: N-terminus assumed
SMILES: CNC(=N)NCCC[C@H](NC(=O)[C@H](CC(C)C)NC(=O)CNC(=O)[C@H](Cc1ccccc1)NC(=O)[C@H](CO)NC(=O)[C@H](CO)NC(=O)[C@H](Cc1c[nH]c2ccccc12)NC(=O)[C@H](CC(N)=O)NC(=O)[C@H](N)Cc1ccc(O)cc1)C(=O)N[C@@H](Cc1ccccc1)C(N)=O
B10: Compound No. 301: [D-Tyr1,Ala(2-Qui) 3,AzaGly7,Arg(Me)9]MS10 (peptide)
peptide: [dY]N[Ala(2-Qui)]NSF[azaGly]L[Arg(Me)]F-NH2
modifications: N-terminus assumed
SMILES: CNC(=N)NCCC[C@H](NC(=O)[C@H](CC(C)C)NC(=O)NNC(=O)[C@H](Cc1ccccc1)NC(=O)[C@H](CO)NC(=O)[C@H](CC(N)=O)NC(=O)[C@H](Cc1ccc2ccccc2n1)NC(=O)[C@H](CC(N)=O)NC(=O)[C@H](N)Cc1ccc(O)cc1)C(=O)N[C@@H](Cc1ccccc1)C(N)=O
B11: Compound No. 296: [6Ψ7,CSNH,D-Tyr1,Arg(Me)9]MS10 (peptide)
peptide: [dY]NWNSFGL[Arg(Me)]F-NH2
modifications: also: Phe6-Gly7 thioamide (CSNH)
notes: also called [6y7,CSNH,D-Tyr1,Arg(Me)9]MS10
B12: Compound No. 291: [D-Pya(3)1,D-Tyr2,Cha3,AzaGly7,Arg(Me)9]MS10 (peptide)
peptide: [d3Pal][dY][Cha]NSF[azaGly]L[Arg(Me)]F-NH2
modifications: N-terminus assumed
SMILES: CNC(=N)NCCC[C@H](NC(=O)[C@H](CC(C)C)NC(=O)NNC(=O)[C@H](Cc1ccccc1)NC(=O)[C@H](CO)NC(=O)[C@H](CC(N)=O)NC(=O)[C@H](CC1CCCCC1)NC(=O)[C@@H](Cc1ccc(O)cc1)NC(=O)[C@H](N)Cc1cccnc1)C(=O)N[C@@H](Cc1ccccc1)C(N)=O
B13: Compound No. 87: des(4-5)-Boc-MS10 (peptide)
peptide: Boc-YNWFGLRF-NH2
SMILES: CC(C)C[C@H](NC(=O)CNC(=O)[C@H](Cc1ccccc1)NC(=O)[C@H](Cc1c[nH]c2ccccc12)NC(=O)[C@H](CC(N)=O)NC(=O)[C@H](Cc1ccc(O)cc1)NC(=O)OC(C)(C)C)C(=O)N[C@@H](CCCNC(=N)N)C(=O)N[C@@H](Cc1ccccc1)C(N)=O
B14: Compound No. 306: [D-Pya(4)1,D-Asn2,Cha3,AzaGly7,Arg(Me)9]MS10 (peptide)
peptide: [d4Pal][dN][Cha]NSF[azaGly]L[Arg(Me)]F-NH2
modifications: N-terminus assumed
SMILES: CNC(=N)NCCC[C@H](NC(=O)[C@H](CC(C)C)NC(=O)NNC(=O)[C@H](Cc1ccccc1)NC(=O)[C@H](CO)NC(=O)[C@H](CC(N)=O)NC(=O)[C@H](CC1CCCCC1)NC(=O)[C@@H](CC(N)=O)NC(=O)[C@H](N)Cc1ccncc1)C(=O)N[C@@H](Cc1ccccc1)C(N)=O
B15: Compound No. 387: Dap-[D-Tyr1,Arg(Me)9]MS10 (peptide)
peptide: XYNWNSFGLRF
modifications: N-terminal Dap added before position 1; D-Tyr1; Arg(Me)9 (MS10 numbering); C-terminal amide

Tests used:
[1] = biological target: human OT7T175 (metastin receptor) (human) (UniProt Q969F8); assay: cell-based or functional assay
[2] = biological target: T1, human OT7T175 (metastin receptor) (human, UniProt Q969F8 1-398); assay: cell-based or functional assay
[3] = biological target: T1, human OT7T175 (metastin receptor); assay: FMAT competition with Cy-5-labeled metastin (40-54), hOT7T175-expressed CHO cells

human OT7T175 (metastin receptor) (human), sequence (Q969F8 whole entry L364H): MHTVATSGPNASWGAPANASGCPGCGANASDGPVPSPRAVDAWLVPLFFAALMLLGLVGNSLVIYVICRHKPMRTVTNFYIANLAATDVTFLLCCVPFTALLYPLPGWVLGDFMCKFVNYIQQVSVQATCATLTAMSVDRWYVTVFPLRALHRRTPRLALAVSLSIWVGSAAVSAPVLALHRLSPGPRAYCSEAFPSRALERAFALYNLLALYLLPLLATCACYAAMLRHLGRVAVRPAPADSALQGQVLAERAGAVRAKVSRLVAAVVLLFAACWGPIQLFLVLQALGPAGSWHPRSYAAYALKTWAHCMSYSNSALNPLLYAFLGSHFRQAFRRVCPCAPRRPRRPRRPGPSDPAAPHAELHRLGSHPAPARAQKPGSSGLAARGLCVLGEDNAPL
T1 sequence (Q969F8 whole entry L364H): as above

Binder | intracellular Ca ion level-increasing activity (FLIPR) (specific activity to metastin (1-54)) [1] | intracellular Ca ion level-increasing activity (FLIPR) [2] | IC50 [3]
YNWNSFGLRX (Hph10; C-terminal amide) [Compound No. 79: [Hph10]MS10] | 1 | – | –
[dY]NWNTF[azaGly]L[Arg(Me)]F-NH2 [Compound No. 297: [D-Tyr1,Thr5,AzaGly7,Arg(Me)9]MS10] | – | 1 specific activity to metastin (1-54) | 0.93 nM
[dY][dN]TNSF[azaGly]L[Arg(Me)][Phe(4-F)]-NH2 [Compound No. 316: [D-Tyr1,D-Asn2,Thr3,AzaGly7,Arg(Me)9,Phe(4F)10]MS10] | – | 1 specific activity to metastin (1-54) | 26 nM
[dY][dN]WNTF[azaGly]L[Arg(Me)]F-NH2 [Compound No. 298: [D-Tyr1,D-Asn2,Thr5,AzaGly7,Arg(Me)9]MS10] | – | 5 specific activity to metastin (1-54) | 0.25 nM
Y[dN][4Pal]NSF[azaGly]L[Arg(Me)]F-NH2 [Compound No. 304: [D-Asn2,Pya(4) 3,AzaGly7,Arg(Me)9]MS10] | – | 3 specific activity to metastin (1-54) | 5 nM
B1 | 10 | – | –
B2 | 5 | – | –
[dY]N[d4Pal]NSF[azaGly]L[Arg(Me)]F-NH2 [Compound No. 302: [D-Tyr1,D-Pya(4) 3,AzaGly7,Arg(Me)9]MS10] | – | 2 specific activity to metastin (1-54) | 7.7 nM
B3 | 1 | – | –
SNWNSFGLRF-NH2 [Compound No. 74: [Ser1]MS10] | 1 | – | –
YNWNSFGLXF (Har(Me)9; C-terminal amide) [Compound No. 312: [Har(Me)9]MS10] | – | 3 specific activity to metastin (1-54) | 100 nM
B4 | – | 1 specific activity to metastin (1-54) | 2.1 nM
B5 | 2 | – | –
B6 | – | 1 specific activity to metastin (1-54) | 470 nM
YNWNSFGLXF (Nar(Me)9; C-terminal amide) [Compound No. 311: [Nar(Me)9]MS10] | – | 1 specific activity to metastin (1-54) | 470 nM
B7 | 7 | – | –

Binder | intracellular Ca ion level-increasing activity (FLIPR) (specific activity to metastin (1-54)) [1] | intracellular Ca ion level-increasing activity (FLIPR) [2] | IC50 [3]
B8 | 0.5 | – | –
YNWFGLRF-NH2 [Compound No. 88: des(4-5)-MS10] | 1 | – | –
[dY]NWNSFGL[Arg(Me)]F-NH2 (also: Phe6-Gly7 bond replaced by NHCO (retro-inverso)) [Compound No. 319: [6Ψ7,NHCO,D-Tyr1,Arg(Me)9]MS10] | – | 3 specific activity to metastin (1-54) | –
B9 | 0.5 | – | –
B10 | – | 1 specific activity to metastin (1-54) | 15 nM
YNWNSFGLXF (Nar9; C-terminal amide) [Compound No. 310: [Nar9]MS10] | – | 3 specific activity to metastin (1-54) | 310 nM
B11 | – | 3 specific activity to metastin (1-54) | 14 nM
YNWNSFGL[Lys(Me2)]F-NH2 [Compound No. 98: [Lys(Me2)9]MS10] | 0.5 | – | –
KNWNSFGLRF-NH2 [Compound No. 76: [Lys1]MS10] | 1 | – | –
YNWNSXGLRF (D-Tyr1; Cha6; Arg(Me)9; C-terminal amide) [Compound No. 172: [D-Tyr1,Cha6,Arg(Me)9]MS10] | 1 | – | –
YKWNSFGLRF-NH2 [Compound No. 56: [Lys2]MS10] | 1 | – | –
B12 | – | 2 specific activity to metastin (1-54) | 0.41 nM
B13 | 1 | – | –
B14 | – | 2 specific activity to metastin (1-54) | 4.4 nM
B15 | 1 | – | –

Reference: US20060241051A1 (Takeda / Millennium, published 2006)
